From the supplement of paper PMC9170038

tested on: K4 kissing-loop RNA reporter; assay: apparent KD of K4 kissing-loop reporter; higher = weaker reporter binding; conditions: Eterna round: R107; input ligand: FMN 200 uM
Description: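 RNA-MaP round R107: designed RNA switches with theophylline, tryptophan, arginine or FMN aptamers are transcribed on-chip within common flanks. They are titrated with a labelled K4 kissing-loop RNA reporter in RNA-MaP buffer (100 mM Tris pH 7.5, 80 mM KCl, 4 mM MgCl2), without ligand or with the indicated ligand. Median apparent KD per design.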
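Further: bound reporter read as fluorescence of individual clusters on recovered sequencing chips by microscopy, with normalized cluster intensities fitted with a binding model.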

| Sequence | apparent KD of K4 kissing-loop reporter [nM] |
| --- | --- |
| UGUACCGAGUCAGGAUAUGGCGUCGAAAGACGAAAACCAGUGAUGUUGGAAAUCUGCGAAAGCAGUCCAGAAGGGACUUGGUACU [FmnBS 25 #SwitchBubble #StaticStem #DoubleMagnetSystem] | 199 |
| GAUUGUGAUGGAAACAUCGCAAUCUCUGAAGGAGCGCGUGAAAACGCAGGUAGGUCGCAGGACGACUAUGACAGUGAUGUUGUCG [Ex Arginine A K4 3] | 189 |
| GCAACUCUCAGUGAUGUUGAGUUAUCGGAAGGAGCGCGUGAAAACGCAGGUAGGUCGCCGAUACAAUGAGUUUCUCGUUGGUUGC [Arginine A K4 21] | 769 |
| AGCGUCCCUACGGCCGCCACUGGGAGUGAUGUUCCCAGGUUAGGCCUGAGGAUACUAAGGAUCGCCAGGACCGGGUAGCGACCAU [Azaonbe] | 88.5 |
| UAGUCGCUAGUUAGCGACAACGGGUCAGAUACCAGACUAGCGAUAGUCCCUUGGCAGCUGAAGUUCAGUGAUGUUGAACGGAUUA [Theo A SS t10] | 192 |
| GCGUCAUCGAAAGGAUAUGGAGUAGUGAUGUUGAUCCAUAUGCUCACGCAUAGCCGAGAACAUCGACCAGAAGGUUCAAGAACUG [theeternabot_exclusion_KL_FMN_B_41] | 672 |
| UGUACCGAGUCAGGAUAUGACGACUAGUCAAAGACUGGUCGAAAAUCCAGUGAUGUUGGAAAUAAAUCAGAAGGGACUUGGUACU [FmnBS 16 #SwitchBubble #StaticStem] | 124 |
| CUCGUGGGUUUGAGAGGGCUUGUGGGAAGUGAGGAUAUUUAGGGAGAAAGAAGGCACUAUAGAAUAUAGUGAUGUUAUGUAAGGG [SSFMNA.O] | 466 |
| AGAGGAAAUAGAAGGAGCGGCGCCAGUGAUGUUGGAUGCCGCGGGUGAAUCAGGUCAUAGUGCCAGGUAGGUCGCUAUUUCAGCG [Larebeve] | 177 |
| AUUAAUUUCAGAGGAUAUCGUAUUUAUAUUUUAUCUUUCCAUAUUUGCAGUGAUGUUGCAUUAAUUCGAGAAGGCUGAUUUAUAA [JR_ExcFMNB_Sub008] | 79 |
| AGAGAUAUAUGAGGAUAUGAGUUAGUUAAUGAGUGAGUUUUAGUGUUGUUUGGUUAGUGAUGUUAUUUAGAAGGCGUGAGUGAUG [ttytmullin] | 98.8 |
| GCAGGACGAGGAGGAGGAUGAAUUACUGAAGGAGCGCAUAUGGUUGCAGGUAGGUCGCGGUAAACAAGUAUAGUGAUGUUAUAUC [SSArgA.P] | 913 |
| GUAGACAGGCUGCGAACCUAGUCUACAGACUAGGAUAUCAGGAAACUGAGAAGGAGUCUAGUUGCAGUGAUGUUGCAAGAAUAAU [KL-SSFMN-A25] | 81.3 |
| CCAUCGCUAUUCGAUACCAGCUACUUAGUGAUGUUAAGUUUAAAUCCACUGUAGGUGGAAAGCCCUUGGCAGCGAAUAGUGAUGG [Theophylline B K4 24] | 315 |
| GCGCGUCAUGUCGGCGGUGACUACGCCGAUACCAGCCGGGAAACCGGCCCUUGGCAGCGGCGCGCCGGAGUGAUGUUCCGACAGA [#2 Exclusion - Theophylline A Attempt #3 (HarryS)] | 126 |
| CAUGGACUUCCAGUGUAUCCAUGACUGGAUACCAGUCAGGAAACUGACCCUUGGCAGCCAGAACUGGAAGUGAUGUUUCCAGUAA [Design8] | 227 |
| AAAUUUUCGAGUGAUGUUCGAAUAAUUUCAGAGGAUAUGCUUAAAAGCAGAAGGCUGUAUUACUAUUUGUUAUUAAAUUUUAUAA [JR_ExcFMNA_Sub001] | 106 |
| CUCACAGUGAUGUUGUGGGCCGAGAGUGAUACCAGCCGUAUUUGUGGCCCUUGGCAGCGCAAAAGCCGAGUGAUGUUCGAAUCGG [Same State Theophylline A GF 24] | 211 |
| UGUAUAGUCAGAAGGAGCGUGAACGAUCGAGAAUCGAUCAGCCAGUGAUGUUGGCAGGAAUCACAGGUAGGUCGCUGACUGUACA [Arg B SS t3] | 237 |
| GGUAGCAUGGCGGCCGCCACUUUGCACCUUUUCUUUUCUUUUGGUGCUUCACGAGUGAUGUUCGUAAGGACCGGGCCAUGCUACC | 259 |
| GCCGUAGAUGGAAGGAGCGUGUCCAAACCUCAUUCAUGUACACACGAGUGAUGUUCGUGUACACAGGUAGGUCGCCAUCUACGGC | 413 |
| UGAUUUAACUGAAGGAGCGGCAAUAGAGAAGGAAAUAUAGUGAUGUUAUAUAAGAGAGAGAGCCAGGUAGGUCGCAGAGGGAGGA [ExArgB.F] | 181 |

| Sequence | apparent KD of K4 kissing-loop reporter [nM] |
| --- | --- |
| AGUAAUGAGUGAUGUUCAAAUAGUAAGGAUACCAGUAAUUCAAAAUGCCCUUGGCAGCUUAACGCUACCAAUAGAUAAAUAAUGG [Theophilline A V2 (+2A)] | 134 |
| ACCUGUAGUGAUGUUACUGGUGGUUAGGAAGGAGCGCCCGCGUGGGCAGGUAGGUCGCCUAAGCUAUGUGGGAAACCGCAUAUUG [#14 K4 Arginine A Same State] | 75.5 |
| ACGUAGUUCUAGGAUACCAGCCAAGGCCCAGGACAAAAGUCCUGGGUCGCCAGUGAUGUUGGCCCUUGGCAGCCUAGAACUACGA [Omei KL Theo B Exc B v11] | 421 |
| AAAUUUAAUAUAUUUAAUUAAUUAUGUGAUACCAGACAUUUAUAAGUCCCUUGGCAGCACUUUGCAGUGAUGUUGCUUAUAAUAA [JR_SSTheophyA_Sub014] | 88.8 |
| UGGCCUUAAAUUCUAGGAUUAGCGACGUACAAGGAUAUUCGUCAUCGAAGAAGGUGUAGCUAGGAGAGUGAUGUUUUCCAUCGCC [theeternabot_sameState_KL_FMN_A_15] | 640 |
| AAUAAGGAGUGAUGUUCCAAGUGAUGUUAACGAGGACCGGUACGGCCGCCACUCGAUACGGCCGGAAAAUAAAAUAAAAUAAAAU [Same State - Tryptophan A (Freestyle 1)] | 103 |
| AGGAGUGAUGUUCCUACAUAGACGGUCCGACGAGGACCGGUACGGCCGCCACUCGCGUCCCAGUGAUGUUGGGAUUCAACGUACA [Exclusion Tryptophan A Gf 15] | 120 |
| AGCUCAGAGUGACUCGAUAAGAGUCACAAACGAGGACCGGUACGGCCGCCACUCGAAAUAACGAGAGUGAUGUUCUCACUGAGCA [FiskerMod 11 - Jieux - Same State Tryptophan A] | 1150 |
| UGUACCGAUUCAGGAUAUGUCGUCGAAAGACGAAAUGGAGUGAUGUUCCUUAAACUGCGAAAGCAGACAGAAGGGAAUUGGUACU [FmnBS 29 U9+A77] | 146 |
| UAACUUGCAGUGAUGUUGCAAGAACUGGAUACCAGCAUGGAAACAUGCCCUUGGCAGCCAGAAGCUGGCUGACUGCAAGGUCAGC [Design4] | 148 |
| UGAUACCAGACUGAUACCAGCAAGUGAUGUUUGCUGAUCUAAAGCAGUCAAAGACUGCCUUGCCCUUGGCAGCAGUCUGGUAUCU [TheoBX 25 #SwitchBubble #StaticStem] | 92.3 |
| ACAGUUGCUAGUGAUACCAGACUAGCACUACGUAAUAUGUCAAGUGAUGUUUGACAACUAGUCCCUUGGCAGCGCGAUACGACUG [#11 K4 Theophylline B Same State] | 235 |
| UGUUGAGUGAUGUUCGAUGUAGUUCAUUCAGAGGAUAUAGGGUGGGCUAGAAGGCUGAAAAGUGCUUCGAGUGAUGUUCGAAGAU [Exclusion FMN A GF 7] | 77.3 |
| CCAACAACGAGUGAUGUUCGUUGAUCUGAAGGAGCGUCAAUAAUGACAGGUAGGUCGCAGAUAAUUGGAUAUAGGGCAAUAGCUC [Same State Arginine A GF13] | 109 |
| AGGUUUUGAUUAGGAUAUGCACUGAGGAGGAGAAUAUAGUGAUGUUAUAUAAGAGGAAGGAGUAGAGUAGAAGGGAUUGAGGUUU [SSFMNB.R] | 249 |
| CGCGCGCGCGCGCGCGCGCGCGCGAAUGAUACCAGUAUAUAAGAAUACCCUUGGCAGCAUAAGAAAGAUAUAGUGAUGUUGUAUA [SSTheophA.B] | 285 |
| GCCGUACGCAUGGAUACCAGCAAUUAUGCUCGUGAUCUAGUGAUGUUAGUGGCGAAAGUUUGCCCUUGGCAGCCAUGCGUACGGC | 224 |
| AGCAUUUUCAGAAGGAGCGUGAAUUAUUCUUAAUUAUAUUAUACGAGUGAUGUUCGUGUUUCACAGGUAGGUCGCUGAUAUAGCA [JR_SSArginiB_Sub004] | 51.4 |
| AAGUGAUGUUGUAGUGAUGUUGUGAUGUUGCAGGAUAUAUAGUGAUGUAGAAGGGUAUGUACAGUUUUUUUUUUUGAGUGUUGAU [sscsmullin] | 79.7 |
| AGGGCUGAGAGCGAUACCAGCGGAUACUAUAUGGUCCAAUAGAGUGAUGUUUUAUAAAGCCGCCCUUGGCAGCGCAAUCUAUUAG [XTheo-B4] | 1330 |
| CCUUCUCUUGAUAGUGAUGUUGUCGAGGACAAGGAUAUCAUCUCAAUGAGAAGGUGUCCUUGAUAACAUGGAGGUCUGAAACAGA [Omei KL FMN A Exc C v10] | 468 |

same assay, conditions: Eterna round: R107; input ligand: arginine 13.2 mM

| Sequence | apparent KD of K4 kissing-loop reporter [nM] |
| --- | --- |
| UGUACCGAGUCAGGAUAUGGCGUCGAAAGACGAAAACCAGUGAUGUUGGAAAUCUGCGAAAGCAGUCCAGAAGGGACUUGGUACU [FmnBS 25 #SwitchBubble #StaticStem #DoubleMagnetSystem] | 233 |
| GAUUGUGAUGGAAACAUCGCAAUCUCUGAAGGAGCGCGUGAAAACGCAGGUAGGUCGCAGGACGACUAUGACAGUGAUGUUGUCG [Ex Arginine A K4 3] | 216 |
| GCAACUCUCAGUGAUGUUGAGUUAUCGGAAGGAGCGCGUGAAAACGCAGGUAGGUCGCCGAUACAAUGAGUUUCUCGUUGGUUGC [Arginine A K4 21] | 489 |
| AGCGUCCCUACGGCCGCCACUGGGAGUGAUGUUCCCAGGUUAGGCCUGAGGAUACUAAGGAUCGCCAGGACCGGGUAGCGACCAU [Azaonbe] | 81.1 |
| UAGUCGCUAGUUAGCGACAACGGGUCAGAUACCAGACUAGCGAUAGUCCCUUGGCAGCUGAAGUUCAGUGAUGUUGAACGGAUUA [Theo A SS t10] | 296 |
| GCGUCAUCGAAAGGAUAUGGAGUAGUGAUGUUGAUCCAUAUGCUCACGCAUAGCCGAGAACAUCGACCAGAAGGUUCAAGAACUG [theeternabot_exclusion_KL_FMN_B_41] | 509 |
| UGUACCGAGUCAGGAUAUGACGACUAGUCAAAGACUGGUCGAAAAUCCAGUGAUGUUGGAAAUAAAUCAGAAGGGACUUGGUACU [FmnBS 16 #SwitchBubble #StaticStem] | 309 |
| CUCGUGGGUUUGAGAGGGCUUGUGGGAAGUGAGGAUAUUUAGGGAGAAAGAAGGCACUAUAGAAUAUAGUGAUGUUAUGUAAGGG [SSFMNA.O] | 954 |
| AGAGGAAAUAGAAGGAGCGGCGCCAGUGAUGUUGGAUGCCGCGGGUGAAUCAGGUCAUAGUGCCAGGUAGGUCGCUAUUUCAGCG [Larebeve] | 112 |
| AUUAAUUUCAGAGGAUAUCGUAUUUAUAUUUUAUCUUUCCAUAUUUGCAGUGAUGUUGCAUUAAUUCGAGAAGGCUGAUUUAUAA [JR_ExcFMNB_Sub008] | 84 |
